Read-outs that look alike come from different tables or passages of the source.
Key:
SEC [1] = target: the molecule itself; experiment: SEC
SEC [2] = target: the molecule itself; experiment: SEC; remark: listed apart in the source

B1: ^coreAFG3L2^E575Q (enzyme)
chain: not shown
SEC [1]
  stoichiometry N: 6

B2: ^coreAFG3L2^E408Q (enzyme)
chain: not shown
SEC [2]
  stoichiometry N: 6
